± gives the standard deviation of the averaged measurements.
Columns and labels:
Saccharomyces cerevisiae [1] = assay: protein stability index of tFT-peptide fusion (C-terminal peptide) (PSI (0-1 scale)); higher = more stable (slower turnover); conditions: genetic background: wild type; temperature: 30 C
Saccharomyces cerevisiae [2] = assay: as above
Procedure: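 MPS profiling in S. cerevisiae of the tFT-X12 degron library: putative degron peptides plus stable controls, 12 aa, fused to the C-terminus of a sfGFP-mCherry timer. Cells are FACS-sorted into 8 mCherry/sfGFP bins and deep-sequenced. PSI runs from 0 (unstable) to 1 (stable). Backgrounds are wild type, das1Δ and doa10Δ at 30 °C, and wild type, das1Δ, cdc34-1 and cdc53-1 at 37 °C; 2-3 technical replicates each.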

[3] = genetic background: cdc34-1, temperature: 37 C
[4] = genetic background: cdc53-1, temperature: 37 C
[5] = genetic background: das1 deletion, temperature: 30 C
[6] = genetic background: das1 deletion, temperature: 37 C
[7] = genetic background: doa10 deletion, temperature: 30 C
[8] = genetic background: wild type, temperature: 30 C
[9] = genetic background: wild type, temperature: 37 C
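Note: PSI is a weighted mean of sequencing reads over stability bins, variants kept only with over 10 reads, mCherry proximal and sfGFP distal, peptide attached via GGGS linker.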

Sequence	protein stability index (Saccharomyces cerevisiae [1])	protein stability index (Saccharomyces cerevisiae [2]; [3])	protein stability index (Saccharomyces cerevisiae [2]; [4])	protein stability index (Saccharomyces cerevisiae [2]; [5])	protein stability index (Saccharomyces cerevisiae [2]; [6])	protein stability index (Saccharomyces cerevisiae [2]; [7])	protein stability index (Saccharomyces cerevisiae [2]; [8])	protein stability index (Saccharomyces cerevisiae [2]; [9])
GDFYCSSVVLVV	0.306 ± 0.0044	0.401 ± 0.013	0.401 ± 0.036	0.332 ± 0.032	0.484 ± 0.018	0.278 ± 0.014	0.32 ± 0.031	0.445 ± 0.0082
PLFFGVQAFGGV	0.7335 ± 0.0045	0.727 ± 0.026	0.79052 ± 0.0004	0.664 ± 0.029	0.7644 ± 0.0042	0.669 ± 0.033	0.679 ± 0.014	0.7622 ± 0.0021
RDASLLFHFFVC	0.199 ± 0.0058	0.507 ± 0.059	0.727 ± 0.014	0.614 ± 0.012	0.726 ± 0.011	0.0833 ± 0.018	0.0965 ± 0.0056	0.143 ± 0.015
FGALVVCFLTRC	0.374 ± 0.026	0.426 ± 0.039	0.511 ± 0.056	0.342 ± 0.027	0.519 ± 0.007	0.289 ± 0.02	0.302 ± 0.04	0.481 ± 0.027
ARTWVVLLICGH	0.423 ± 0.033	0.4159 ± 0.0012	0.479 ± 0.025	0.355 ± 0.032	0.563 ± 0.04	0.28 ± 0.0056	0.328 ± 0.019	0.531 ± 0.045
LGDPPCRMIVVR	0.466 ± 0.033	0.532 ± 0.026	0.58581 ± 4.2e-05	0.353 ± 0.038	0.5869 ± 0.0044	0.339 ± 0.011	0.376 ± 0.026	0.558 ± 0.0075
KCVVMFFLRSVS	0.5 ± 0.026	0.636 ± 0.024	0.6956 ± 0.0065	0.529 ± 0.037	0.676 ± 0.022	0.396 ± 0.012	0.412 ± 0.011	0.598 ± 0.011
PPSPPLLFHFPP	0.586 ± 0.15	0.669 ± 0.049	0.756 ± 0.013	0.661 ± 0.0077	0.7367 ± 0.005	0.661 ± 0.022	0.658 ± 0.018	0.7058 ± 0.007
GWRGVVLVFVLV	0.36784 ± 0.00027	0.302 ± 0.0049	0.46 ± 0.059	0.28 ± 0.027	0.47443 ± 1.3e-05	0.251 ± 0.012	0.269 ± 0.027	0.438 ± 0.015
IIIGTLLYVNVR	0.29 ± 0.022	0.279 ± 0.0059	0.323 ± 0.033	0.243 ± 0.03	0.403 ± 0.012	0.188 ± 0.018	0.215 ± 0.029	0.39 ± 0.041
SWMFKLCIQWNV	0.467 ± 0.012	0.5147 ± 0.0019	0.567 ± 0.023	0.502 ± 0.011	0.5321 ± 0.00098	0.467 ± 0.029	0.456 ± 0.013	0.49 ± 0.019
WSSWFLWVIFRL	0.348 ± 0.02	0.176 ± 0.011	0.173 ± 0.023	0.34 ± 0.035	0.433 ± 0.056	0.459 ± 0.0077	0.289 ± 0.035	0.288 ± 0.035
IFLGFGPLFGRL	0.777 ± 0.034	0.862 ± 0.044	0.878 ± 0.011	0.727 ± 0.03	0.817 ± 0.034	0.726 ± 0.037	0.73 ± 0.0083	0.824 ± 0.03
MFFSWVLSISLT	0.0454 ± 0.021	0.0242 ± 0.0074	0.058 ± 0.011	0.0335 ± 0.0093	0.0704 ± 0.0084	0.024 ± 0.0024	0.0234 ± 0.0076	0.0577 ± 0.011
VIAYSLLSWGDF	0.371 ± 0.028	0.308 ± 0.0034	0.341 ± 0.019	0.378 ± 0.04	0.319 ± 0.023	0.403 ± 0.029	0.371 ± 0.021	0.305 ± 0.016
VLLRSRLLRRLS	0.211 ± 0.024	0.588 ± 0.055	0.6547 ± 0.0063	0.67 ± 0.048	0.72 ± 0.033	0.137 ± 0.013	0.137 ± 0.038	0.235 ± 0.02
PTLPASLHSIYP	0.768 ± 0.024	0.654 ± 0.03	0.72 ± 0.031	0.684 ± 0.028	0.698 ± 0.021	0.687 ± 0.03	0.6731 ± 0.0056	0.6917 ± 0.0027
